Test system: MS2 coat protein
Assay: apparent KD of MS2 coat protein; higher = weaker reporter binding
Settings: Eterna round: R107
In short: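 Values are apparent KD, taken as the median for each design of fits to normalised binding curves from individual clusters. The designed RNA switches were transcribed on-chip from Illumina sequencing clusters and exposed to SNAP-549-labelled MS2 coat protein at twofold increasing amounts from 0.7 or 1.5 nM to 3 µM. Titration used 100 mM Tris-HCl pH 7.5, 80 mM KCl and 4 mM MgCl2, without or with constant ligand.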

[1] = input ligand: theophylline 20 uM
[2] = input ligand: tryptophan 2.4 mM
[3] = input ligand: theophylline 2 mM

Row | Sequence | apparent KD of MS2 coat protein (input ligand: arginine 13.2 mM) [nM] | apparent KD of MS2 coat protein [1] [nM] | apparent KD of MS2 coat protein [2] [nM] | apparent KD of MS2 coat protein (input ligand: none) [nM] | apparent KD of MS2 coat protein [3] [nM]
1 | UCUUGAGUUUCGGAUACCAGUGUUGUCGAUACAUGAGGAUCACCCAUGUUAGAGGAUGUACACCCUUGGCAGCCGGCUGUGGCGG [zszmullin] | 13.7 | 21.9 | 19 |  | 
2 | UCUUGAGUUUCGGAUACCAGUGUUGUCGAUACAUGAGGAUCACCCAUGUUAGAGGAUGUACACCCUUGGCAGCCGGGUGUGGCGG [tftmullin] | 12.2 | 14.7 | 15.5 | 14.5 | 12.6
3 | UGACAUUGCUCAGAUACCAGACACGAGGAUCACCCGUGUGCCAACAAGUACAAAAUAAAUGUCCCUUGGCAGCUGAGCAAUGUCU [TheoBX 24 #MS2Left #AlternativeMS2 #Theo22] | 11.9 | 16 | 12.2 | 12.2 | 26.1
4 | UGACAUUGCUCAGAUACCAGACAUGAGCAUCAGCCAUGUGCCAACAAGUACAAAAUAAAAGUCCCUUGGCAGCUGAGCAAUGUCU [TheoBX 21 #MS2Left #AlternativeMS2 #Theo2] | 11.3 | 11.3 | 10.6 | 9.88 | 29.1
5 | UGACAUUGCUCAGAUACCAGACAUGAGCAUCAGCCAUGUGCCAACAAGUACAUAAUAAAUGUCCCUUGGCAGCUGAGCAAUGUCU [TheoBX 16 #MS2Left #Theo2 #AlternativeMS2] | 14.3 | 20.5 | 12.7 | 13 | 149
6 | UGACAUUGCUCAGAUACCAGACAUGAGGAUCACCCAUGUACCAAGGUACGAAAAUAACAUGUCCCUUGGCAGCUGAGCAAUGUCU [First try 2 #MS2Left #Theo2] | 16.7 | 27.6 | 12.4 |  | 
7 | UGACAUUGCUCAGAUACCAGACGUGAGCAUCAGCCAUGUGCCAACAAGUACAAAAUAAAUGUCCCUUGGCAGCUGAGCAAUGUCU [TheoBX 22 #MS2Left #AlternativeMS2 #Theo22] | 18.5 | 23.4 | 16.9 |  | 175
8 | UGACAUUGCUCAGAUACCAGACGUGAGGAUCACCCACGUGCCAACAAGUACAAAAUAAAUGUCCCUUGGCAGCUGAGCAAUGUCU [TheoBX 26 #MS2Left #AlternativeMS2 #Theo22] | 9.64 | 12.7 | 10.9 | 9.95 | 14.1
9 | UGACAUUGCUGCGAUACCAGACAUGAGGAUCACCCAUGUACCAAGGUAAGAAAAUAACAUGUCCCUUGGCAGCGCAGCAAUGUCU [MAT - Exclusion Theophlline B - Mod of Eli - D1] | 18.9 | 40.2 | 14.4 |  | 
10 | UGACGAUACCUGGAUACCAGCGACAUGAGGAUCACCCAUGUAUGAGGAUCAGCCAUGAUAUGCCCUUGGCAGCCACGAAAGUCUU [VUVMULLIN] | 16.8 | 27.5 | 18.6 | 15.8 | 150
11 | UGAGAGACCAGAAGGAGCGACAUGAGGAUCACCCAUGUCUCCCGUUAUGGGAGUUCUUUAGGUCAGGUAGGUCGCUGGUCUCUCA [#1 Exclusion - Arginine B Attempt #8 (Inspired by Omei)] | 59.9 | 120 | 87.8 | 132 | 149
12 | UGAGUUCGCUGAUGGGCUAAGUCAGGUGAUACCAGCCACUCCCGCGGCCCUUGGCAGCACAUGAGGAUCACCCAUGUAGAACUUG [Vexetela] | 16 | 31.1 | 20.2 | 18.4 | 374
13 | UGAUCCUGCAGGGAUACCAGCGCCGCUUGAUAACUGUGCACAUGAGGAUCACCCAUGUAGCGCCCUUGGCAGCCCAGCUAGAGGG [Same State Theophylline B GF23] | 21.8 | 33.7 | 28.3 |  | 
14 | UGAUGGAACGGAAGGAGCGUGUAAGAACAAGAACAUGAGGAUCACCCAUGUAUUAAUUUAACACAGGUAGGUCGCCGAGAUAUUG [11.E] | 19.8 | 23.1 | 13.5 | 14.5 | 17.3
15 | UGCCGAGACGUGGAUUACCCGUGUACCGAAGGAGCGCCCGAAAGGGCAGGUAGGUCGCGGAGGACAUGAGGAUCACCCAUGUUUA | 202 | 55 | 55.7 | 56.3 | 79.8
16 | UGCUACAUGAGGAUCACCCAUGUGGGUGAUACCAGCAUUCGUUAAUGCCCUUGGCAGCGCAGCCGAACCAUUCAUUCGGCAGAUC [Laxeor] | 36.2 | 214 | 328 | 125 | 382
17 | UGGAGUAGGGUAAAUAGGAUAAGUACAGAAGGAGCGCGAAUAAACGCAGGUAGGUCGCUGGAACACAUGAGGAUCACCCAUGUUG [Same State Arginine A GF 24] | 20.9 | 26.2 | 25.4 | 25.4 | 17.8
18 | UGGAGUAUCAGACAUGAGGAUCACCCAUGUCGAGGACCGGUACGGCCGCCACUCGGCAGUUUGCGUCCUCAGGUACUCCGGGUAA [Edlatearis] | 16.8 | 26.9 | 27.7 | 11.2 | 15.3
19 | UGGGAAGGAGGAAGGAGCGCCAUAAGGGUGACAGUCUGGGUACAUGAGGAUCACCCAUGUAGGCAGGUAGGUCGCCUAGCUCUCA [XArg-B16] | 9.4 | 12.9 | 9.56 | 9.14 | 12.9

Row | Sequence | apparent KD of MS2 coat protein (input ligand: arginine 13.2 mM) [nM] | apparent KD of MS2 coat protein [1] [nM] | apparent KD of MS2 coat protein [2] [nM] | apparent KD of MS2 coat protein (input ligand: none) [nM] | apparent KD of MS2 coat protein [3] [nM]
20 | UGGGCAUACAUGAGGAUCACCCAUGUAGAUACCAGCACUAGCCUGUGCCCUUGGCAGCUAACCGGGUCGAGAACUUAGUGCUCCU [Lexele] | 10.9 | 21.9 | 11.5 |  | 
21 | UGGGUAGCAUAGAUUGAUAGCUACACUGAAGGAGCGAGGAUAACCUCAGGUAGGUCGCAGACAUGAGGAUCACCCAUGUAGAUGG [Same State Arginine A GF17] | 77.7 | 174 | 209 | 254 | 252
22 | UGGUACAUGAGGAUCACCCAUGUUCCAGAUACCAGUGUCCCGGUGCACCCUUGGCAGCUGGUGGUACAUGAGGAUCACCCAUGUG [Exclusion Theophylline A GF13] | 17.9 | 56.3 | 37.3 | 42.2 | 73.1
23 | UGGUACUAGGCGGCCGCCACUGGGAGAUACAUGAGGAUCACCCAUGUUUAAUGCCGAGAGGCAACUAGGACCGGGCCUAGUACAU | 63.6 | 133 |  |  | 127
24 | UGGUGUAGGGUAAAUAGGCUGAGUACAGAAGGAGCGCGAAUAAACGCAGGUAGGUCGCUGGACACAUGAGGAUCACCCAUGUUGA [Same State Arginine A GF 29] | 10.8 | 31.9 | 21.2 | 20.5 | 27.3
25 | UGUAACAUGAGGAUCACCCAUGUGAGUGAUACCAGACUAGUAUUAGUCCCUUGGCAGCACGCUGGGCGAGUGUAUAGUCUAUGCG [Same State - Theophylline A (Freestyle 15)] | 69 | 125 | 75.5 |  | 
26 | UGUAACAUGAGGAUCACCCAUGUGAGUGAUACCAGACUAGUGUUAGUCCCUUGGCAGCACGCUGGGCGAGUGUGUAGUCUAUGCG [Same State - Theophylline A (Freestyle 16)] | 60.9 | 136 | 105 | 108 | 117
27 | UGUAACAUGAGGAUCACCCAUGUGAGUGAUACCAGACUAGUGUUGGUCCCUUGGCAGCACGCUGGACGAAUGUGUAGUCUAUGCG [Same State - Theophylline A (Freestyle 18)] | 59.5 | 107 | 77.4 |  | 
28 | UGUAACAUGAGGAUCACCCAUGUGAGUGAUACCAGAUUAGUAUUAGUCCCUUGGCAGCACGUUGGGCGAGUGUAUAGUCUAUGCG [Same State - Theophylline A (Freestyle 13)] | 90.9 | 162 |  |  | 
29 | UGUAACAUGAGGAUCACCCAUGUGCACGAUACCAGCUUAUUGAUAGGCCCUUGGCAGCGUAUGCGGAAGCUGUAUAAUAUAUAUC [#27 SameState-TheophyllineA] | 10.3 | 18.6 | 10.8 |  | 
30 | UGUAACAUGAGGAUCACCCAUGUGCACGAUACCAGCUUAUUGGUAGGCCCUUGGCAGCGUAUUCGGAAGAUGUAUAAUAUAUAUC [#26 SameState-TheophyllineA] | 12.3 | 17.4 | 12.1 |  | 
31 | UGUAAUGGGAUCAACCCAUGAGAGUCUGAAGGAGCGAUCGUAAGAUCAGGUAGGUCGCAGGAGACAUGAGGAUCACCCAUGUAUA [Arg A Ex t2] | 33.3 | 56.6 | 39.5 | 38.7 | 51.1
32 | UGUACCAUGUCGGCCGCCACUUGAAAUAAACAAGAGGAUCACCCUUGUGACGUCAAAGACGUCUCAAGGACCGGGACAUGGUACU [TryBS Zipper #StaticStem #Zipper] | 168 | 281 | 19 | 313 | 357
33 | UGUAUGGACUGAAGGAGCGCAUCAAAAUAACAUGAGGAUCACCCAUGUAAGGCGAAAGCCGUGCAGGUAGGUCGCAGUCCAUACU [ArgBX 3] | 14.9 | 17.3 | 15.3 | 15.6 | 18.8
34 | UGUAUGGACUGAAGGAGCGCCUCAAAAUAACAUGAGGAUCACCCAUGUAGGCGAAAGCCUGGGCAGGUAGGUCGCAGUCCAUACU [ArgBX 2 #StaticStem #MS2Late] | 20.9 | 21.4 | 12.4 | 12.9 | 13.4
35 | UGUAUGGACUGAAGGAGCGGAUGAUAUCAUGAGGAUCACCCAUGGAAUAAGGCGAAAGCCAUCCAGGUAGGUCGCAGUCCAUACU | 45.6 | 131 | 82.4 | 72.7 | 128
36 | UGUAUGGACUGAAGGAGCGGGAAAAUAACCUGAGGAUCACCCAGGUAAAAGGCGAAAGCCACCCAGGUAGGUCGCAGUCCAUACU | 5.69 | 10.2 | 12.5 | 10.7 | 10.6
37 | UGUAUGGACUGAAGGAGCGGGUUGAUAACCUGAGGAUCACCCAGGUAAAAGGCGAAAGCCACCCAGGUAGGUCGCAGUCCAUACU | 16.3 | 21.6 | 20 | 18.1 | 19.7

Source: the supplement of paper PMC9170038
